# In publication PMC3718021 (2013):
# Positions count from the first letter of the chain named. Numbers in names are those of the source.
# B1: fascin-2 (protein)
# chain: MPTNGLHQVLKIQFGLVNDADRYLTAESFGFKVNASAASLKRKQIWVLEPDPGQGTAVLFRSSHLGRYLSAEEDGRVACEMDQPGRDCRFLVLPQPDGRWVLQSEPHGRFFGGIEDRLSCFATAISPAELWTVHLAIHPQAHLLSVSRRRYVHLCLQEDEMAADGDMPWGVDALVTLIFQSRRYCLKSYDSRYLRSDGRLVWEPEAHACYTLEFKAGKLAFKDCDGRYLAPVGPAGTLKAGRNTRPSKDELFDLEQSHPQVVLVAANRRYISVRQGINVSANQDEELGHETFLMQIDQETKKCTFYSSTGGYWTLVTHGGIQATATQVSANTMFEIEWHGRRVALKASNGRFVCMKKNGQLAAISDFVGEDELFTLKLINRPLLVLRGLDGFVCHRRGSNQLDTNRSTYDVFHLSFRDGAYQIRGRGGGFWYTGSHGSVCSDGDLAEDFLFEFRERGRLAIRALSGKYLRGGASGLLRADADLPVGEALWEY
# B2: fascin-2 S39A (protein)
# chain: B1 chain with S39A
# B3: fascin-2 p.R109H (protein)
# chain: B1 chain with R109H
# B4: fascin-2 (protein)
# chain: B1 chain
# modifications: N-terminal flag tag, phalloidin-stabilized F-actin
# Legend:
# Test in all cases: high-speed cosedimentation
# [1] = molecular target: platelet actin (85% β-actin, 15% γ-actin) (Homo sapiens, UniProt P60709)
# γ-actin = γ-actin (Mus musculus, UniProt P63260)
# α-skeletal F-actin = α-skeletal F-actin (Oryctolagus cuniculus, UniProt P68135)
Binder,Kd [1],Kd (γ-actin),Kd (α-skeletal F-actin)
B1,4.15 µM,6.17 µM,
B2,3.91 µM,,
B3,,,5.97 µM
B4,,,4.95 µM
